Results as given in publication PMC3401516.

Experiments:
[1] = biological target: activated His6-tagged ERK2 (cleavable His6-tag construct, tag not cleaved) (Rattus norvegicus) (UniProt P63086); assay: SEC-MALS
ERK2 (Rattus norvegicus) = ERK2 (Rattus norvegicus) (UniProt P63086); details: cited from earlier work

Substance	percent dimer [1]	stoichiometry N [1]	Kd (ERK2 (Rattus norvegicus))
activated His6-tagged ERK2 (cleavable His6-tag construct, tag not cleaved) (from UniProt P63086 1-358) (enzyme)	30%	2	–
ERK2 (from UniProt P63086)	–	–	7 nM
